Reference: patent US20230250154A1 (CYTONICS, published 2023)

T1: ADAMTS5 (human, UniProt Q9UNA0 262-622, limits assumed)
T1 sequence (looked up): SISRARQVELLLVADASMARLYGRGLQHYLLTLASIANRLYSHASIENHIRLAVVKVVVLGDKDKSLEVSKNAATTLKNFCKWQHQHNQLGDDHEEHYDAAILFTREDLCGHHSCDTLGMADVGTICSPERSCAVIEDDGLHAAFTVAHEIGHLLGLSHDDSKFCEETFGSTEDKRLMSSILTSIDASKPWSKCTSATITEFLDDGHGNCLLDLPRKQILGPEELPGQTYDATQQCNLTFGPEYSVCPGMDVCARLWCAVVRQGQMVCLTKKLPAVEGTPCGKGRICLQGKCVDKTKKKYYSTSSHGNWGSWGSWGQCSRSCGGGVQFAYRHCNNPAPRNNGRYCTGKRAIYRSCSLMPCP

T2: ADAMTS4 (human, UniProt O75173 213-685, limits assumed)
T2 sequence (looked up): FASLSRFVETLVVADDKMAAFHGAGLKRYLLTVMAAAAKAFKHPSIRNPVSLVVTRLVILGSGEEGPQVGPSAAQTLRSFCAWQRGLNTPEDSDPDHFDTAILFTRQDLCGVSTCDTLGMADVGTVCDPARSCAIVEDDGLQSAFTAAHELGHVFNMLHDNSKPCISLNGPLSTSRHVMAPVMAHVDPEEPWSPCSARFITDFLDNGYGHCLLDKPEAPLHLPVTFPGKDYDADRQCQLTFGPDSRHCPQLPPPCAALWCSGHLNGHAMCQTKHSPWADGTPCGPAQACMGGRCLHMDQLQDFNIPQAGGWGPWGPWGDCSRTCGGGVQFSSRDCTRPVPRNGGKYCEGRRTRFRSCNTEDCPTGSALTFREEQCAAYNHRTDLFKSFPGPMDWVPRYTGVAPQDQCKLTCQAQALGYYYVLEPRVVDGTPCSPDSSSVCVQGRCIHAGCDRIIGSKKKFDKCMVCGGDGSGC


Experiments:
Experiment in all cases: cell-based or functional assay
[1] = target: T1, ADAMTS5
[2] = target: MMP13 (human, UniProt P45452 104-471, limits assumed)
[3] = target: T2, ADAMTS4

Protease Inhibition (% of WT) [1] | Protease Inhibition (% of WT) [2] | Protease Inhibition (% of WT) [3] | Binder
100 % of WT | 121 % of WT | 88 % of WT | Variant A2M, bait region SEQ ID NO 120 (other) SVSGKPQYMVLVPSLLHTETTEKGCVLLSYLNETVTVSASLESVRGNRSLFTDLEAENDVLHCVAFAVPKSSSNEEVMFLTVQVKGPTQEFKKRTTVMVKNEDSLVFVQTDKSIYKPGQTVKFRVVSMDENFHPLNELIPLVYIQDPKGNRIAQWQSFQLEGGLKQFSFPLSSEPFQGSYKVVVQKKSGGRTEHPFTVEEFVLPKFEVQVTVPKIITILEEEMNVSVCGLYTYGKPVPGHVTVSICRKYSDASDCHGEDSQAFCEKFSGQLNSHGCFYQQVKTKVFQLKRKEYEMKLHTEAQIQEEGTVVELTGRQSSEITRTITKLSFVKVDSHFRQGIPFFGQVRLVDGKGVPIPNKVIFIRGNEANYYSNATTDEHGLVQFSINTTNVMGTSLTVRVNYKDRSPCYGYQWVSEEHEEAHHTAYLVFSPSKSFVHLEPMSHELPCGHTQTVQAHYILNGGTLLGLKKLSFYYLIMAKGGIVRTGTHGLLVKQEDMKGHFSISIPVKSDIAPVARLLIYAVLPTGDVIGDSAKYDVENCLANKVDLSFSPSQSLPASHAHLRVTAAPQSVCALRAVDQSVLLMKPDAELSASSVYNLLPEKDLTGFPGPLNDQDDEDCINRHNVYINGITYTPVSSTNEKDMYSFLEDMGLKAFTNSKIRKPKMCPQLEEEGVEEGKEEEGLGSGPAGAARGSELEGRGSPTEGEARGSKLRKYFPETWIWDLVVVNSAGVAEVGVTVPDTITEWKAGAFCLSEDAGLGISSTASLRAFQPFFVELTMPYSVIRGEAFTLKATVLNYLPKCIRVSVQLEASPAFLAVPVEKEQAPHCICANGRQTVSWAVTPKSLGNVNFTVSAEALESQELCGTEVPSVPEHGRKDTVIKPLLVEPEGLEKETTFNSLLCPSGGEVSEELSLKLPPNVVEESARASVSVLGDILGSAMQNTQNLLQMPYGCGEQNMVLFAPNIYVLDYLNETQQLTPEIKSKAIGYLNTGYQRQLNYKHYDGSYSTFGERYGRNQGNTWLTAFVLKTFAQARAYIFIDEAHITQALIWLSQRQKDNGCFRSSGSLLNNAIKGGVEDEVTLSAYITIALLEIPLTVTHPVVRNALFCLESAWKTAQEGDHGSHVYTKALLAYAFALAGNQDKRKEVLKSLNEEAVKKDNSVHWERPQKPKAPVGHFYEPQAPSAEVEMTSYVLLAYLTAQPAPTSEDLTSATNIVKWITKQQNAQGGFSSTQDTVVALHALSKYGAATFTRTGKAAQVTIQSSGTFSSKFQVDNNNRLLLQQVSLPELPGEYSMKVTGEGCVYLQTSLKYNILPEKEEFPFALGVQTLPQTCDEPKAHTSFQISLSVSYTGSRSASNMAIVDVKMVSGFIPLKPTVKMLERSNHVSRTEVSSNHVLIYLDKVSNQTLSLFFTVLQDVPVRDLKPAIVKVYDYYETDEFAIAEYNAPCSKDLGNADYKDDDDKGASHHHHHH
170 % of WT | 90 % of WT | 100 % of WT | Variant A2M, bait region SEQ ID NO 119 (other) SVSGKPQYMVLVPSLLHTETTEKGCVLLSYLNETVTVSASLESVRGNRSLFTDLEAENDVLHCVAFAVPKSSSNEEVMFLTVQVKGPTQEFKKRTTVMVKNEDSLVFVQTDKSIYKPGQTVKFRVVSMDENFHPLNELIPLVYIQDPKGNRIAQWQSFQLEGGLKQFSFPLSSEPFQGSYKVVVQKKSGGRTEHPFTVEEFVLPKFEVQVTVPKIITILEEEMNVSVCGLYTYGKPVPGHVTVSICRKYSDASDCHGEDSQAFCEKFSGQLNSHGCFYQQVKTKVFQLKRKEYEMKLHTEAQIQEEGTVVELTGRQSSEITRTITKLSFVKVDSHFRQGIPFFGQVRLVDGKGVPIPNKVIFIRGNEANYYSNATTDEHGLVQFSINTTNVMGTSLTVRVNYKDRSPCYGYQWVSEEHEEAHHTAYLVFSPSKSFVHLEPMSHELPCGHTQTVQAHYILNGGTLLGLKKLSFYYLIMAKGGIVRTGTHGLLVKQEDMKGHFSISIPVKSDIAPVARLLIYAVLPTGDVIGDSAKYDVENCLANKVDLSFSPSQSLPASHAHLRVTAAPQSVCALRAVDQSVLLMKPDAELSASSVYNLLPEKDLTGFPGPLNDQDDEDCINRHNVYINGITYTPVSSTNEKDMYSFLEDMGLKAFTNSKIRKPKMCPQLELQQYEMHGPEGLRVGEAIPMSIPIPENFFGVKEEEGLGSKLRKYFPETWIWDLVVVNSAGVAEVGVTVPDTITEWKAGAFCLSEDAGLGISSTASLRAFQPFFVELTMPYSVIRGEAFTLKATVLNYLPKCIRVSVQLEASPAFLAVPVEKEQAPHCICANGRQTVSWAVTPKSLGNVNFTVSAEALESQELCGTEVPSVPEHGRKDTVIKPLLVEPEGLEKETTFNSLLCPSGGEVSEELSLKLPPNVVEESARASVSVLGDILGSAMQNTQNLLQMPYGCGEQNMVLFAPNIYVLDYLNETQQLTPEIKSKAIGYLNTGYQRQLNYKHYDGSYSTFGERYGRNQGNTWLTAFVLKTFAQARAYIFIDEAHITQALIWLSQRQKDNGCFRSSGSLLNNAIKGGVEDEVTLSAYITIALLEIPLTVTHPVVRNALFCLESAWKTAQEGDHGSHVYTKALLAYAFALAGNQDKRKEVLKSLNEEAVKKDNSVHWERPQKPKAPVGHFYEPQAPSAEVEMTSYVLLAYLTAQPAPTSEDLTSATNIVKWITKQQNAQGGFSSTQDTVVALHALSKYGAATFTRTGKAAQVTIQSSGTFSSKFQVDNNNRLLLQQVSLPELPGEYSMKVTGEGCVYLQTSLKYNILPEKEEFPFALGVQTLPQTCDEPKAHTSFQISLSVSYTGSRSASNMAIVDVKMVSGFIPLKPTVKMLERSNHVSRTEVSSNHVLIYLDKVSNQTLSLFFTVLQDVPVRDLKPAIVKVYDYYETDEFAIAEYNAPCSKDLGNADYKDDDDKGASHHHHHH
68 % of WT | 115 % of WT | 64 % of WT | Variant A2M, bait region SEQ ID NO 121 (other) SVSGKPQYMVLVPSLLHTETTEKGCVLLSYLNETVTVSASLESVRGNRSLFTDLEAENDVLHCVAFAVPKSSSNEEVMFLTVQVKGPTQEFKKRTTVMVKNEDSLVFVQTDKSIYKPGQTVKFRVVSMDENFHPLNELIPLVYIQDPKGNRIAQWQSFQLEGGLKQFSFPLSSEPFQGSYKVVVQKKSGGRTEHPFTVEEFVLPKFEVQVTVPKIITILEEEMNVSVCGLYTYGKPVPGHVTVSICRKYSDASDCHGEDSQAFCEKFSGQLNSHGCFYQQVKTKVFQLKRKEYEMKLHTEAQIQEEGTVVELTGRQSSEITRTITKLSFVKVDSHFRQGIPFFGQVRLVDGKGVPIPNKVIFIRGNEANYYSNATTDEHGLVQFSINTTNVMGTSLTVRVNYKDRSPCYGYQWVSEEHEEAHHTAYLVFSPSKSFVHLEPMSHELPCGHTQTVQAHYILNGGTLLGLKKLSFYYLIMAKGGIVRTGTHGLLVKQEDMKGHFSISIPVKSDIAPVARLLIYAVLPTGDVIGDSAKYDVENCLANKVDLSFSPSQSLPASHAHLRVTAAPQSVCALRAVDQSVLLMKPDAELSASSVYNLLPEKDLTGFPGPLNDQDDEDCINRHNVYINGITYTPVSSTNEKDMYSFLEDMGLKAFTNSKIRKPKMCPQLEPESSGEAIPMSIPTSEDLVVQIPENFFGVEAEGTGGERGVLGKLRKYFPETWIWDLVVVNSAGVAEVGVTVPDTITEWKAGAFCLSEDAGLGISSTASLRAFQPFFVELTMPYSVIRGEAFTLKATVLNYLPKCIRVSVQLEASPAFLAVPVEKEQAPHCICANGRQTVSWAVTPKSLGNVNFTVSAEALESQELCGTEVPSVPEHGRKDTVIKPLLVEPEGLEKETTFNSLLCPSGGEVSEELSLKLPPNVVEESARASVSVLGDILGSAMQNTQNLLQMPYGCGEQNMVLFAPNIYVLDYLNETQQLTPEIKSKAIGYLNTGYQRQLNYKHYDGSYSTFGERYGRNQGNTWLTAFVLKTFAQARAYIFIDEAHITQALIWLSQRQKDNGCFRSSGSLLNNAIKGGVEDEVTLSAYITIALLEIPLTVTHPVVRNALFCLESAWKTAQEGDHGSHVYTKALLAYAFALAGNQDKRKEVLKSLNEEAVKKDNSVHWERPQKPKAPVGHFYEPQAPSAEVEMTSYVLLAYLTAQPAPTSEDLTSATNIVKWITKQQNAQGGFSSTQDTVVALHALSKYGAATFTRTGKAAQVTIQSSGTFSSKFQVDNNNRLLLQQVSLPELPGEYSMKVTGEGCVYLQTSLKYNILPEKEEFPFALGVQTLPQTCDEPKAHTSFQISLSVSYTGSRSASNMAIVDVKMVSGFIPLKPTVKMLERSNHVSRTEVSSNHVLIYLDKVSNQTLSLFFTVLQDVPVRDLKPAIVKVYDYYETDEFAIAEYNAPCSKDLGNADYKDDDDKGASHHHHHH
